Article PMC11806106

Key:
[1] = target: MOR BRET sensor (G267-MOR sensor with mTurq2 replaced by nLuc2) (rat) (UniProt P33535)
[2] = target: rat µ opioid receptor (MOR-wt) (rat) (UniProt P33535)
[3] = target: MOR-nLuc (rat µ opioid receptor, wild type, with C-terminal nLuc) (rat) (UniProt P33535)

In the case of DAMGO (peptide), the EC50 of the agonist-induced change of the BRET ratio of the MOR BRET conformation sensor [1] was 445 nM, the EC50 of Go activation (BRET-based activity sensor Go1-case) [2] was 2.92 nM and the EC50 of agonist-induced arrestin3 interaction with MOR-nLuc (BRET, with GRK2) [3] was 282 nM.
